Test results: article PMC2844890

Test: infectious virion yield
Settings: glycan lost; control: WT tetherin

B1: tetherin (BST-2): N65,92A (protein)
parent chain: MASTSYDYCRVPMEDGDKRCKLLLGIGILVLLIIVILGVPLIIFTIKANSEACRDGLRAVMECRNVTHLLQQELTEAQKGFQDVEAQAATCNHTVMALMASLDAEKAQGQKKVEELEGEITTLNHKLQDASAEVERLRRENQVLSVRIADKKYYPSSQDSSSAAAPQLLIVLLGLSALLQ
other: inhibition of virion release: abolishes
